Reference: paper PMC4980550, “Structural Basis for Plexin Activation and Regulation” (Neuron, 2016)
“And” between values parts separate entries of the source, which are not always exact repeats. Equal entries are not always repeated.

Assays:
[1] = biological target: PlxnA2 extracellular-transmembrane segment fused to mTFP1 (donor) or mVenus (acceptor) (mouse); experiment: FRET or BRET; FRET-FLIM in live COS-7 cells co-expressing mTFP1- and mVenus-fused PlxnA2; before Sema6A stimulation
[2] = biological target: PlxnA1_(1-10), full extracellular segment of mouse PlxnA1 (domains 1-10) (mouse) (UniProt P70206); experiment: AUC; sedimentation velocity, 40,000 rpm, absorbance at 280 nm, c(s) analysis; protein at 28.1 μM (4 mg/ml)
[3] = biological target: the molecule itself; experiment: crystal structure; crystals of full extracellular segments; intermolecular plexin-plexin interface in the crystal; 4 to 10 Å
[4] = biological target: T1, PlxnA2_(1-2), PlxnA2 sema-PSI1 domains (mouse, UniProt P70207 31-561); experiment: SPR; equilibrium experiments, Biacore T200, 25°C, 10 mM HEPES pH 7.5, 150 mM NaCl, 0.005% Tween 20; biotinylated PlxnA2_(4-5) (wild type or mutant) on streptavidin chip, PlxnA2_(1-2) as analyte; 1:1 Langmuir model; settings: both partners purified
T1 construct: Plexin-A2, mouse, sema and PSI1 domains (domains 1-2)
T1 sequence: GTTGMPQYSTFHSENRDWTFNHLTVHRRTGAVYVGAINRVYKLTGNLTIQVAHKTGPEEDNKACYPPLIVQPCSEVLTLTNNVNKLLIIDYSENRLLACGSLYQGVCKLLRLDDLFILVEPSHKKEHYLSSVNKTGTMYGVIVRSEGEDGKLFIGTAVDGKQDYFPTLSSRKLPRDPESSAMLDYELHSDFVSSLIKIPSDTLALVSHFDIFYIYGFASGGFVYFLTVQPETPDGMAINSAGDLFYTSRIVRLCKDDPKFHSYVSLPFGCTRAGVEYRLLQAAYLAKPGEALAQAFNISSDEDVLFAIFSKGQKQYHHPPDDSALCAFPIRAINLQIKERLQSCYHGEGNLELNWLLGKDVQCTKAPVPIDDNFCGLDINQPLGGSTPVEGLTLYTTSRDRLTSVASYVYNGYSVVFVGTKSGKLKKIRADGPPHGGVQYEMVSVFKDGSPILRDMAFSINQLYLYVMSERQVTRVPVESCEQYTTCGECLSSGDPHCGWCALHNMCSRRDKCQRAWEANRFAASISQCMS

## PlxnA2 extracellular-transmembrane segment fused to mTFP1 (donor) or mVenus (acceptor) (receptor)
[1]
  average fraction of interacting donor (fD): 0.11

## PlxnA1_(1-10), full extracellular segment of mouse PlxnA1 (domains 1-10) (from UniProt P70206 28-1242) (domain or fragment)
[2]
  stoichiometry N: 2 and 3 and 4

B1: PlxnA2_(1-10), full extracellular segment of mouse PlxnA2 (domain or fragment, UniProt P70207 35-1237, looked up)
chain: MPQYSTFHSENRDWTFNHLTVHRRTGAVYVGAINRVYKLTGNLTIQVAHKTGPEEDNKACYPPLIVQPCSEVLTLTNNVNKLLIIDYSENRLLACGSLYQGVCKLLRLDDLFILVEPSHKKEHYLSSVNKTGTMYGVIVRSEGEDGKLFIGTAVDGKQDYFPTLSSRKLPRDPESSAMLDYELHSDFVSSLIKIPSDTLALVSHFDIFYIYGFASGGFVYFLTVQPETPDGMAINSAGDLFYTSRIVRLCKDDPKFHSYVSLPFGCTRAGVEYRLLQAAYLAKPGEALAQAFNISSDEDVLFAIFSKGQKQYHHPPDDSALCAFPIRAINLQIKERLQSCYHGEGNLELNWLLGKDVQCTKAPVPIDDNFCGLDINQPLGGSTPVEGLTLYTTSRDRLTSVASYVYNGYSVVFVGTKSGKLKKIRADGPPHGGVQYEMVSVFKDGSPILRDMAFSINQLYLYVMSERQVTRVPVESCEQYTTCGECLSSGDPHCGWCALHNMCSRRDKCQRAWEANRFAASISQCMSLEVHPNSISVSDHSRLLSLVVNDAPNLSEGIACAFGNLTEVEGQVSGSQVICISPGPKDVPVIPLDQDWFGLELQLRSKETGKIFVSTEFKFYNCSAHQLCLSCVNSAFRCHWCKYRNLCTHDPTTCSFQEGRINVSEDCPQLVPTEEILIPVGEVKPITLKARNLPQPQSGQRGYECVLSIQGAVHRVPALRFNSSSVQCQNSSYQYDGMDISNLAVDFAVVWNGNFIIDNPQDLKVHLYKCAAQRESCGLCLKADHKFECGWCSGERRCTLHQHCPSTSSPWLDWSSHNVKCSNPQITEILTVSGPPEGGTRVTIHGVNLGLDFSEIAHHVQVAGVPCTPIPGEYIIAEQIVCEMGHAVIGTTSGPVRLCIGECKPEFMTKSHQQYTFVNPSVLSLSPIRGPESGGTMVTITGHYLGAGSSVAVYLGNQTCEFYGRSMNEIVCVSPPSSNGLGPVPVSVSVDRARVDSSLQFEYIDDPRVQRIEPEWSITSGHTPLTITGFNLDVIQEPRVRVKFNGKESVNVCTVVNTTTLTCLAPSLTSDYRPGLDTVERPDEFGFLFNNVQSLLIYNDTKFIYYPNPTFELLSPTGILDQKPGSPIILKGKNLCPPASGGAKLNYTVMIGETPCTVTVSETQLLCEPPNLTGQHKVMVHVGGMVFSPGSVSVISDSLLTLP
notes: Plexin-A2, mouse, full extracellular segment (domains 1-10); also called PlxnA2 full ectodomain
[3]
  binding result: binds

B2: PlxnA2_(4-5), PlxnA2 PSI2-IPT2 domains (domain or fragment, mouse)
chain: NCSAHQLCLSCVNSAFRCHWCKYRNLCTHDPTTCSFQEGRINVSEDCPQLVPTEEILIPVGEVKPITLKARNLPQPQSGQRGYECVLSIQGAVHRVPALRFNSSSVQCQNSSYQYDGMDISNLAVDFAVVWNGNFIIDNPQDLKVHLYK
modifications: enzymatically biotinylated with BirA via an engineered C-terminal tag
notes: Plexin-A2, mouse, PSI2 and IPT2 domains (domains 4-5); The crystallised PlxnA2_(4-5) (PDB 5L74) was made in HEK293S cells; also called wild-type PlxnA2_(4-5); not shown: biotinylation tag (BirA), C-terminal, kept
[4]
  Kd: 20.9 ± 0.38 µM

B3: PlxnA4_(1-10), full extracellular segment of mouse PlxnA4 (domain or fragment, UniProt Q80UG2 24-1236, looked up)
chain: TLLPRQPPQLSQKPSFVTFRGEPAEGFNHLVVDERTGHIYLGAVNRIYKLSSDLKVLVTHQTGPDEDNPKCYPPRIVQTCNEPLASTNNVNKMLLIDYKENRLIACGSLYQGICKLLRLEDLFKLGEPFHKKEHYLSGVNESGSVFGVIVSYSNFDDKLFIATAVDGKPEYFPTISSRKLTKNSEADGMFAYVFHDEFVASMIKIPSDTFTVIPDFDIYYVYGFSSGNFVYFLTLQPEMVSPPGSTTKEQVYTSKLVRLCKEDTAFNSYVEVPIGCERNGVEYRLLQAAYLSKAGAVLGRTLGVRPDDDLLFTVFSKGQKRKMKSLDESALCIFILKQINDRIKDRLQSCYRGEGTLDLAWLKVKDIPCSSALLTIDDNFCGLDMNAPLGVSEMVRGIPVFTEDRDRMTSVIAYVYKNHSLAFVGTKSGKLKKIRVDGPKGNALQYETVQVVDSGPVLRDMAFSKDHEQLYIMSERQLTRVPVESCGQYRSCGECLGSGDPHCGWCVLHNTCTRKERCERSREPRRFASEMKQCVRLTVHPNNISVSQYNVLLVLETYNVPELSAGVNCTFEDLSEMDGLVIGNQIQCYSPAAKEVPRIITENGDHHVVQLQLKSKETGMTFASTSFVFYNCSVHNSCLSCVESPYRCHWCKYRHVCTHDPNTCSFQEGRVKLPEDCPQLLRVDKILVPVEVIKPITLKAKNLPQPQSGQRGYECILNIQGIEQRVPALRFNSSSVQCQNTSYSYEGMEINNLPVELTVVWNGHFNIDNPAQNKVYLYKCGAMRESCGLCLKADPDFECGWCQSPGQCTLRQHCPAHESRWLELSGANSKCTNPRITEIIPVTGPREGGTKVTIRGENLGLEFRDIASHVKVAGVECSPLVDGYIPAEQIVCEMGEAKPSQHAGFVEICVAVCRPEFMARSSQLYYFMTLTLADLKPNRGPMSGGTQVTITGTNLNAGSNVVVMFGSQPCLFHRRSPSYIICNTTSSEEVLDMKVTVQVDRARIRQDLVFQYVEDPTIVRIEPEWSIVSGNTPIAVWGTHLDLIQNPQIRAKHGGKEHINICEVLNATEMTCQAPALALGPDHQSDLTERPEEFGFILDNVQSLLILNKTNFTYYPNPVFEAFSPSGILELKPGTPIILKGKNLIPPVAGGNVKLNYTVLVGEKPCTVTVSDVQLLCESPNLIGRHKVMARVGGMEYSPGMVYIAPDSPLSLP
notes: Plexin-A4, mouse, full extracellular segment (domains 1-10); also called PlxnA4 full ectodomain
[3]
  binding result: binds
